Source: patent publication US20090060919A1 (AstraZeneca / MedImmune, published 2009)
Positions count from the first letter of the chain named. Blank lines part the entries; values can stand above or below the binder they belong to.

How the values were obtained:
[1] = target: T1, human IgEλ (U266 derived) (human, UniProt P01854-1 1-428); assay: HTRF competition: scFv against Eu-cryptate human IgE binding to human FcεRI-Fc; geomean (95% CI)
T1 construct: Whole IgE purified from U266 cells (Ikeyama et al. 1986); labelled with europium cryptate or biotin in some assays; also called human IgE (U266-derived); human IgE lambda
T1 sequence (P01854 other isoform, or with tags, fused parts or gaps): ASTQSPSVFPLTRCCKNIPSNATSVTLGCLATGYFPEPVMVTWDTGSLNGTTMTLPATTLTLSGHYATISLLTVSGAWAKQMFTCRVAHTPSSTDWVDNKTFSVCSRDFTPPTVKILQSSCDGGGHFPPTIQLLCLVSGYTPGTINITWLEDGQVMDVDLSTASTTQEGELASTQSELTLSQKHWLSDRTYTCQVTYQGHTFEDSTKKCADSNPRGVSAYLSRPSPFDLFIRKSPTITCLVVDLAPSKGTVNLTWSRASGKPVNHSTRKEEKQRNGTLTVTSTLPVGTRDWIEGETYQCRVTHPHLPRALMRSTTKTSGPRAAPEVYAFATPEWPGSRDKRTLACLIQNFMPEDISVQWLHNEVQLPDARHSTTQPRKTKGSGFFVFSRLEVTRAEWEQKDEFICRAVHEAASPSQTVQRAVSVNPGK

[2] = target: T1, human IgEλ (U266 derived); assay: cell-based or functional assay
[3] = target: recombinant chimaeric cynomolgus IgE (D12 variable regions, cynomolgus IgE constant region) (cynomolgus monkey); assay: cell-based or functional assay
Sequence of recombinant chimaeric cynomolgus IgE (D12 variable regions, cynomolgus IgE constant region) (cynomolgus monkey) (heavy, as listed by the source limits assumed, chain 1 of 2): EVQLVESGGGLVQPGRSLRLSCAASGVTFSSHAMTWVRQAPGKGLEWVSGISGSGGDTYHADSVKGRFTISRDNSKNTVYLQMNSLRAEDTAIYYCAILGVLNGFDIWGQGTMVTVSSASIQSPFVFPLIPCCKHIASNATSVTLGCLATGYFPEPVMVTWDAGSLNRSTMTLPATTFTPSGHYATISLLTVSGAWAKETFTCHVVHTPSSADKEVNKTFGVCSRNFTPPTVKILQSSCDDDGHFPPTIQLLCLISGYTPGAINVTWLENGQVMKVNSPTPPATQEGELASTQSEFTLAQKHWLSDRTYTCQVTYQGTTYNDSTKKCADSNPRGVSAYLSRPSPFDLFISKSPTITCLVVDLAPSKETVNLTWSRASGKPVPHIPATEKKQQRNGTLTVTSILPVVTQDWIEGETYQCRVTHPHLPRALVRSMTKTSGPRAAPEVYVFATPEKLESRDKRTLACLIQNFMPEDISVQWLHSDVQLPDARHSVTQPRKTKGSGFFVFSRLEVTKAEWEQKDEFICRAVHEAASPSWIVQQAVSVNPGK
Sequence of recombinant chimaeric cynomolgus IgE (D12 variable regions, cynomolgus IgE constant region) (cynomolgus monkey) (light, as listed by the source limits assumed, chain 2 of 2): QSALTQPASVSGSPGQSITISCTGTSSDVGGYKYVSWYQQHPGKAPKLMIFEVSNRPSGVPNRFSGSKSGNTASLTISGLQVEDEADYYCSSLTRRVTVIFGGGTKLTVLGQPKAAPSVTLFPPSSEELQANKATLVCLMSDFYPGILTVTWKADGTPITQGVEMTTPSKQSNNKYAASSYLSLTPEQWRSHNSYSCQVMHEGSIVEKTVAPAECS

[4] = target: T1, human IgEλ (U266 derived); assay: SPR (BIAcore 2000): IgG captured on protein G', IgE as analyte, bivalent analyte model; geomean
Experimental: In brief, Protein G′ (Sigma Aldrich, P4689) was covalently coupled to the surface of a CM5 sensor chip using standard amine coupling reagents according to manufacturer's instructions (BIAcore). […] The resulting sensorgrams were evaluated using BIA evaluation 3.1 software and fitted to a bivalent analyte model, to provide relative binding data.

[5] = target: T1, human IgEλ (U266 derived); assay: HTRF competition: scFv against Eu-cryptate human IgE binding to human FcεRI-Fc
[6] = target: T1, human IgEλ (U266 derived); assay: HTRF competition: scFv against Eu-cryptate human IgE binding to human FcεRI-Fc; geomean

- IC50 [1]: 475 nM
B1: Antibody 1 scFv (scFv, V domains shown)
VH: QVQLVQSGAEVKKPGATVKLSCKVYGYIFTDYNIYWVRQAPGKGLEWMGLIDPDNGETFYAEKFQGRATMTADTSSDRAYMELTSLTFEDTATYYCATVLHRRLKGGYDYWGRGTLVTVSS
VL: QSVLTQPPSVSGAPGQRVTISCTGSSSNIGAGYDVHWYQQLPGTAPKLLIYDNFNRPSGVPDRFSGSKSGTSASLAIIGLQTEDEADYYCQSYDSSLSGSLFGTGTKLTVL
notes: Purified scFv, non-germlined; also called parent; not shown: scFv linker and any tags; the libraries are only cited to Vaughan et al. 1996

- RBL-ER51 calcium signalling IC50 (Geomean), Human IgE [2]: 0.262 nM
- RBL-ER51 calcium signalling IC50 (Geomean), Cynomolgus IgE [3]: 2.66 nM
B2: Antibody 22 IgG (antibody, V domains shown)
VH: B1 VH with L100T, H101L, R102K, R103S, L104A
VL: B1 VL with L97G, S98G, G99Y, S100A, L101P

- RBL-ER51 calcium signalling IC50 (Geomean), Human IgE [2]: 0.398 nM
- RBL-ER51 calcium signalling IC50 (Geomean), Cynomolgus IgE [3]: 5.1 nM
B3: Antibody 26 IgG (antibody, V domains shown)
VH: B1 VH with L100S, H101L, R102K, R103E, L104A
VL: B1 VL with S96A, L97S, S98R, G99H, S100A, L101P

- RBL-ER51 calcium signalling IC50 (Geomean), Human IgE [2]: 0.306 nM
- RBL-ER51 calcium signalling IC50 (Geomean), Cynomolgus IgE [3]: 3.58 nM
B4: Antibody 21 IgG (antibody, V domains shown)
VH: B1 VH with L100T, H101L, R102K, R103S, L104A
VL: B1 VL with L97S, S98Q, G99L, L101P

- RBL-ER51 calcium signalling IC50 (Geomean), Human IgE [2]: 0.532 nM
- Kd [4]: 8 nM
B5: Antibody 18 IgG (antibody, V domains shown)
VH: B1 VH with H101L, R103S, L104A
VL: B1 VL with S96H, S98Q, G99L, L101P
notes: Whole human IgG (section 1.4: IgG1)

- RBL-ER51 calcium signalling IC50 (Geomean), Human IgE [2]: 0.099 nM
- Kd [4]: 3.2 nM
B6: Antibody 28 IgG (antibody, V domains shown)
VH: B1 VH with L100M, H101G, R102K, R103W, L104I
VL: B1 VL with L97S, S98L, G99H, L101P
notes: as for B5

- IC50 [5]: 6 nM
B7: Antibody 21 scFv (scFv, V domains shown)
VH: B1 VH with L100T, H101L, R102K, R103S, L104A
VL: B1 VL with L97S, S98Q, G99L, L101P
notes: Purified scFv, non-germlined

- IC50 [1]: 2 nM
B8: Antibody 4 scFv (scFv, V domains shown)
VH: B1 VH with L100M, H101G, R102K, R103W, L104I
VL: B1 VL with S96R, L97G, S98G, G99H, L101P
notes: Purified scFv, non-germlined; not shown: scFv linker and any tags; the libraries are only cited to Vaughan et al. 1996

- IC50 [5]: 1 nM
B9: Antibody 23 scFv (scFv, V domains shown)
VH: B1 VH with L100M, H101G, R102K, R103W, L104I
VL: B1 VL with S96H, L97H, S98L, G99Y, L101S
notes: Purified scFv, non-germlined

- RBL-ER51 calcium signalling IC50 (Geomean), Human IgE [2]: 0.134 nM
- Kd [4]: 2.3 nM
B10: Antibody 12 IgG (antibody, V domains shown)
VH: B1 VH with L100M, H101G, R102K, R103W, L104I
VL: B1 VL with L97I, S98D, G99H, L101P
notes: as for B5

- RBL-ER51 calcium signalling IC50 (Geomean), Human IgE [2]: 0.292 nM
- Kd [4]: 4.6 nM
B11: Antibody 16 IgG (antibody, V domains shown)
VH: B1 VH with L100S, H101L, R102K, R103S, L104A
VL: B1 VL with S96R, L97H, S98H, G99H, S100A, L101P
notes: as for B5

- RBL-ER51 calcium signalling IC50 (Geomean), Human IgE [2]: 0.088 nM
- Kd [4]: 2.1 nM
B12: Antibody 4 IgG (antibody, V domains shown)
VH: B1 VH with L100M, H101G, R102K, R103W, L104I
VL: B1 VL with S96R, L97G, S98G, G99H, L101P
notes: as for B5

- IC50 [6]: 3 nM
B13: Antibody 12 scFv (scFv, V domains shown)
VH: B1 VH with L100M, H101G, R102K, R103W, L104I
VL: B1 VL with L97I, S98D, G99H, L101P
notes: Purified scFv, non-germlined

- RBL-ER51 calcium signalling IC50 (Geomean), Human IgE [2]: 0.191 nM
- Kd [4]: 3.3 nM
B14: Antibody 20 IgG (antibody, V domains shown)
VH: B1 VH with L100M, H101G, R102K, R103W, L104I
VL: B1 VL with L97T, G99S, L101P
notes: as for B5

- IC50 [5]: 28 nM
B15: Antibody 2 scFv (scFv, V domains shown)
VH: B1 VH with L100S, H101L, R103S, L104A
VL: B1 VL
notes: as for B8

- IC50 [5]: 9 nM
B16: Antibody 9 scFv (scFv, V domains shown)
VH: B1 VH with L100T, H101L, R103S, L104A
VL: B1 VL with S96P, L97S, G99T, L101P
notes: Purified scFv, non-germlined

- IC50 [5]: 1 nM
B17: Antibody 28 scFv (scFv, V domains shown)
VH: B1 VH with L100M, H101G, R102K, R103W, L104I
VL: B1 VL with L97S, S98L, G99H, L101P
notes: Purified scFv, non-germlined

- IC50 [5]: 8 nM
B18: Antibody 14 scFv (scFv, V domains shown)
VH: B1 VH with L100M, H101G, R102K, R103W, L104I
VL: B1 VL with S96H, L97H, S98R, G99H, L101P
notes: Purified scFv, non-germlined

- IC50 [6]: 2 nM
B19: Antibody 13 scFv (scFv, V domains shown)
VH: B1 VH with L100M, H101G, R102K, R103W, L104I
VL: B1 VL with S96N, L97I, S98L, G99Y, L101P
notes: Purified scFv, non-germlined

- RBL-ER51 calcium signalling IC50 (Geomean), Human IgE [2]: 0.095 nM
- Kd [4]: 2.5 nM
B20: Antibody 19 IgG (antibody, V domains shown)
VH: B1 VH with L100M, H101G, R102K, R103W, L104I
VL: B1 VL with S96T, G99H, L101P
notes: as for B5

- IC50 [5]: 6 nM
B21: Antibody 22 scFv (scFv, V domains shown)
VH: B1 VH with L100T, H101L, R102K, R103S, L104A
VL: B1 VL with L97G, S98G, G99Y, S100A, L101P
notes: Purified scFv, non-germlined

- RBL-ER51 calcium signalling IC50 (Geomean), Human IgE [2]: 0.091 nM
- Kd [4]: 2.4 nM
B22: Antibody 5 IgG (antibody, V domains shown)
VH: B1 VH with L100M, H101G, R102K, R103W, L104I
VL: B1 VL with S96T, L97K, S98H, G99T, L101P
notes: as for B5

- IC50 [1]: 5 nM
B23: Antibody 16 scFv (scFv, V domains shown)
VH: B1 VH with L100S, H101L, R102K, R103S, L104A
VL: B1 VL with S96R, L97H, S98H, G99H, S100A, L101P
notes: Purified scFv, non-germlined

- IC50 [1]: 2 nM
B24: Antibody 11 scFv (scFv, V domains shown)
VH: B1 VH with L100M, H101G, R102K, R103W, L104I
VL: B1 VL with S96P, L97T, S98L, G99T, L101P
notes: Purified scFv, non-germlined

- IC50 [5]: 5 nM
B25: Antibody 3 scFv (scFv, V domains shown)
VH: B1 VH with L100M, H101G, R102K, R103W, L104I
VL: B1 VL with S96T, L97F, S98N, G99H, S100A, L101P
notes: as for B8

- IC50 [5]: 10 nM
B26: Antibody 10 scFv (scFv, V domains shown)
VH: B1 VH with L100S, H101L, R103A, L104A
VL: B1 VL with S96E, L97Q, S98E, G99L, S100A, L101P
notes: Purified scFv, non-germlined

- IC50 [5]: 6 nM
B27: Antibody 17 scFv (scFv, V domains shown)
VH: B1 VH with L100T, H101L, R102K, R103S, L104A
VL: B1 VL with S96Q, L97S, G99T, L101P
notes: Purified scFv, non-germlined

- IC50 [5]: 9 nM
B28: Antibody 24 scFv (scFv, V domains shown)
VH: B1 VH with L100T, H101L, R102K, R103T, L104A
VL: B1 VL with S96R, L97N, S98G, G99Y, S100G, L101G
notes: Purified scFv, non-germlined

- RBL-ER51 calcium signalling IC50 (Geomean), Human IgE [2]: 0.109 nM
- Kd [4]: 2.7 nM
B29: Antibody 23 IgG (antibody, V domains shown)
VH: B1 VH with L100M, H101G, R102K, R103W, L104I
VL: B1 VL with S96H, L97H, S98L, G99Y, L101S
notes: as for B5

- IC50 [5]: 8 nM
B30: Antibody 25 scFv (scFv, V domains shown)
VH: B1 VH with L100T, H101L, R102K, R103S, L104A
VL: B1 VL with S96N, L97H, S98K, G99T, L101P
notes: Purified scFv, non-germlined

- IC50 [5]: 7 nM
B31: Antibody 15 scFv (scFv, V domains shown)
VH: B1 VH with L100T, H101L, R102K, R103T, L104A
VL: B1 VL with S96H, L97K, S98G, G99Y, S100G, L101G
notes: Purified scFv, non-germlined

- IC50 [5]: 9 nM
B32: Antibody 7 scFv (scFv, V domains shown)
VH: B1 VH with L100T, H101L, R102K, R103S, L104A
VL: B1 VL with S96D, L97R, S98R, G99N, L101P
notes: Purified scFv, non-germlined

- IC50 [5]: 11 nM
B33: Antibody 18 scFv (scFv, V domains shown)
VH: B1 VH with H101L, R103S, L104A
VL: B1 VL with S96H, S98Q, G99L, L101P
notes: Purified scFv, non-germlined

- IC50 [5]: 12 nM
B34: Antibody 26 scFv (scFv, V domains shown)
VH: B1 VH with L100S, H101L, R102K, R103E, L104A
VL: B1 VL with S96A, L97S, S98R, G99H, S100A, L101P
notes: Purified scFv, non-germlined

- IC50 [6]: 3 nM
B35: Antibody 6 scFv (scFv, V domains shown)
VH: B1 VH with L100M, H101G, R102K, R103W, L104I
VL: B1 VL with S96T, L97M, S98R, G99H, S100G, L101P
notes: as for B8

- RBL-ER51 calcium signalling IC50 (Geomean), Human IgE [2]: 0.096 nM
- Kd [4]: 2.1 nM
B36: Antibody 6 IgG (antibody, V domains shown)
VH: B1 VH with L100M, H101G, R102K, R103W, L104I
VL: B1 VL with S96T, L97M, S98R, G99H, S100G, L101P
notes: as for B5

- RBL-ER51 calcium signalling IC50 (Geomean), Human IgE [2]: 0.088 nM
- Kd [4]: 2.3 nM
B37: Antibody 13 IgG (antibody, V domains shown)
VH: B1 VH with L100M, H101G, R102K, R103W, L104I
VL: B1 VL with S96N, L97I, S98L, G99Y, L101P
notes: as for B5

- IC50 [1]: 3 nM
B38: Antibody 5 scFv (scFv, V domains shown)
VH: B1 VH with L100M, H101G, R102K, R103W, L104I
VL: B1 VL with S96T, L97K, S98H, G99T, L101P
notes: as for B8

- IC50 [1]: 5 nM
B39: Antibody 8 scFv (scFv, V domains shown)
VH: B1 VH with H101G, R103W, L104I
VL: B1 VL with S96P, L97T, S98H, G99T, L101P
notes: Purified scFv, non-germlined

- IC50 [5]: 9 nM
B40: Antibody 27 scFv (scFv, V domains shown)
VH: B1 VH with L100S, H101L, R102K, R103E, L104A
VL: B1 VL with S96P, L97T, S98Q, G99T, L101P
notes: Purified scFv, non-germlined
